Assay results published in US7642239B2, “Inhibition of placenta growth factor (PLGF) mediated metastasis and/or angiogenesis” (Center for Molecular Medicine and Immunology, priority 2005, dated 2010).
Marks after values point to notes of the source that are not given here. One block for each molecule: values may come before it.

Columns and labels:
[1] = system: PlGF-mediated angiogenesis in corneal tissues; assay: Mouse corneal micropocket angiogenesis assay; format: in vivo, C57B16/J mice; settings: day 5; for effect on PlGF mediated angiogenesis in corneal tissues: micropellets, 100 ng PlGF with 1 μM peptide
Procedure: The ability of PlGF ligands to block PlGF-mediated angiogenesis in corneal tissues in vivo is investigated. Corneal micropockets are created using a modified von Graefe cataract knife in both eyes of male 5-6-wk-old C57B16/J mice. Micropellets comprised of a sustained release formulation of polyglucuronic acid/polylactic acid containing 100 ng of PlGF or PlGF with 1 μM BP-1, BP-2, BP-3 or BP-4 are implanted into each corneal pocket. Eyes are examined by a slit-lamp biomicroscope on day 5 after pellet implantation. Vessel length and neovascularization are measured.

[2] = system: MCF-7 human breast cancer cells; format: cell-based
Procedure: (§1) MTT (3-(4,5-dimethylthiazolyl-2)-2,5-diphenyltetrazolium bromide, Sigma) assays were performed under conditions of low serum (1%) to determine PlGF effects on cell viability, the toxicity of the peptides, and their effect on PlGF-mediated breast tumor cell growth (Mosmann, 1983, J Immunol Meth 65:55-63; Modrak et al., 2000, Biochem Biophys Res Commun 268:603-606). Peptide concentration was 1-2 μM, and the concentration of exogenous PlGF was 2 nM. The human breast tumor lines tested were: MDA-MB-231, MDA-MB-468 and MCF-7 (ATCC, Mannasses, Va.). Briefly, 96-well plates were seeded with 5-10×10^4 cells/ml in medium containing 1% fetal bovine serum (FBS). After 24 h, cells were treated with individual peptides at a concentration of 1-2 μM (4 binding peptides), in quadruplicate, and/or rhuPlGF at a 2-nM concentration. After the designated time points, 0.5 mg/ml MTT (5 mg/ml stock diluted 1:10 in RPMI medium with no serum) was added to the wells (Mosmann, 1983). When purple crystals were clearly visible in the cells, and the plate appeared to be fully developed, the reaction was terminated with acid alcohol (0.04M HCl in isopropanol). Absorbance of the dissolved crystals was read at 570 nm. The 24-h time point was chosen because the in vitro effects of PlGF on tumor cell migration were measurable at this time (see wound-healing assay below). These assays were also performed using medium with 10% FBS, with similar results.

PlGF = molecular target: T1, PlGF (Homo sapiens, UniProt P49763); assay: Free peptide binding ELISA (FLAG epitope probe), PlGF-coated wells; settings: free peptide; BP3, BP4, BP3scr at up to 50 μM
T1 construct: purchased R&D Systems
T1 sequence (P49763 19-170 isoform P49763-3 limits assumed): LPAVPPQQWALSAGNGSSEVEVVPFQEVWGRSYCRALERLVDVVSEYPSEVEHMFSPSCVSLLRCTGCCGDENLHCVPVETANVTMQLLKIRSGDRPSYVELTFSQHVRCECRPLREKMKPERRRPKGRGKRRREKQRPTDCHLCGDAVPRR
Procedure: (§2) Competition assays were done with 2.5 or 25 U/ml heparin (Sigma, St. Louis, Mo.). BP1, 3, 4, and a scrambled version of BP3 (scrBP3) were synthesized with a linker followed by the FLAG epitope ([…] SEQ ID NO:5) at the C-terminus. Thirty minutes after addition of the first reagent, the second reagent was added, followed by another 30 minute incubation. Peptide binding was assessed by probing for the FLAG epitope (Prickett et al., Biotechniques 7:580-9, 1989; Castrucci et al., J. Virol. 66:4647-53, 1992). Absorbance was read at 490 nm.

[3] = molecular target: T2, recombinant human Flt-1 fusion protein (Homo sapiens, UniProt P17948); assay: Free peptide binding and competition ELISA, Flt-1-coated wells; settings: free peptide
T2 construct: purchased R & D Systems
T2 sequence (P17948 with tags, fused parts or gaps limits assumed): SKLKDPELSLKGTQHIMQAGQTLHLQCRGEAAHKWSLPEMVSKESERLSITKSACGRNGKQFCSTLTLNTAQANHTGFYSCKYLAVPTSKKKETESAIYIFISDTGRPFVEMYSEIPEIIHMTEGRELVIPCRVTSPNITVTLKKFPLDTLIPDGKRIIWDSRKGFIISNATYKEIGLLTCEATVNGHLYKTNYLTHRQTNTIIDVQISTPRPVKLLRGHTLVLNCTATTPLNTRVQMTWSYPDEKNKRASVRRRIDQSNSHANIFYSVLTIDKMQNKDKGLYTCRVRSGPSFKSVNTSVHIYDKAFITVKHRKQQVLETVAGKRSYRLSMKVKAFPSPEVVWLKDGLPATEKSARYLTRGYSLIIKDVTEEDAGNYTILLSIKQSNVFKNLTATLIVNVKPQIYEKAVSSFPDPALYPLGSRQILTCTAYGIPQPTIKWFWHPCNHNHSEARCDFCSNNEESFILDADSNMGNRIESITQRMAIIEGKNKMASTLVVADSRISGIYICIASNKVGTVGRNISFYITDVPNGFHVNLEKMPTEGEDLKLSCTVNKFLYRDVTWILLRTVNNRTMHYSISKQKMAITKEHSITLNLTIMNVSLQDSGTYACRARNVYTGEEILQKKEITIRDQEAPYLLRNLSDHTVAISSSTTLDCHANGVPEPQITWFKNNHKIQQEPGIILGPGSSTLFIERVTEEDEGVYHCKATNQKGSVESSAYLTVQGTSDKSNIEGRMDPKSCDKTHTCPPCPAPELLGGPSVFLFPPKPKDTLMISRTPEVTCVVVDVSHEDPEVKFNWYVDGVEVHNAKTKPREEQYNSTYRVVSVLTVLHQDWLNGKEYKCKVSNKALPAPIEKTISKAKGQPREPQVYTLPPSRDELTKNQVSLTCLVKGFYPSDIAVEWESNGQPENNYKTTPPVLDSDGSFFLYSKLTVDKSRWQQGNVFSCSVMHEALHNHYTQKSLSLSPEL
Procedure: as §2

MDA-MB-468 xenografts = format: in vivo, mice; settings: 200 μg/dose i.p., twice-weekly; for tumor growth inhibition: after 4 weeks
Procedure: FIG. 5. Treatment of mice bearing MDA-MB-468 xenografts with peptides BP1 or BP3. Mice were treated every 3-4 days with 200 ug BP as described in Methods. Tumor volume was measured 2×/week. *P<0.05 at days 10, 14, 17 and 24 (change in tumor volume (ANOVA)). FIG. 5A—tumors treated with binding peptide 1. FIG. 5B—tumors treated with binding peptide 3.
Mice bearing MDA-MB-468 xenografts (average tumor volume: 0.19 cm^3) were treated with i.p. injections of individual peptides (200 μg/dose) (FIG. 5). After 4 weeks of twice-weekly treatment, tumor growth was inhibited by 49% and 58% in mice treated with BP1 (FIG. 5A) or BP3 (FIG. 5B), respectively. The effect of BP3 on tumor growth was apparent after 2 weeks of treatment (FIG. 5B), whereas the inhibitory effect of BP1 was evident after one week (FIG. 5A). The average changes in individual tumor volumes during treatment with BP1 were significant (P<0.05) at days 10, 14, 17 and 24 (FIG. 5A). Treatment with BP2 was ineffective; tumors continued to grow at almost the same rate as the mock-treated controls (results not shown). BP4 treatment produced a 20% inhibition of tumor growth (results not shown).

[4] = system: MDA-MB-231 human breast cancer cells; assay: MTT tumor cell viability assay, MDA-MB-231; format: cell-based; settings: 24 h
Procedure: as §1, with “These assays were also performed using medium with 10% FBS, with similar results.” left out

MCF-7 [5] = assay: Wound-healing (motility) assay, MCF-7; format: cell-based, human
Procedure: (§3) MCF-7, MDA-MB-23 1, and MDA-MB-468 breast tumor cell lines or HECs were seeded onto sterile glass coverslips in Petri dishes or six-well plates. When the cells were 70-80% confluent, the monolayers were scratched with a sterile plastic pipet tip.
(§4) Inhibitor concentrations were 50 μM PD98059 (PD98) (mitogen activated protein kinase-kinase 1 [MEK1] inhibitor), 5 nM Wortmannin (phosphatidyl inositol 3 kinase [PI3K] inhibitor), or human recombinant soluble Flt-1 (sFlt-1) (R&D Systems). […] Cells were pre-incubated with PD98 and Wortmannin for 15-30 min before addition of PlGF. Stained (Wright-Giemsa) and mounted coverslips were examined microscopically. Five to ten 100× fields were evaluated by counting the number of cells separated from the wound edges and which appeared to be migrating toward the center of the wound. Results are reported as the average number of cells migrating into the wound/100× field. In some cases data from separate experiments were combined to accommodate inclusion of various treatments in the tables.
(§5) Antibody concentration was 1 μg/ml. MEK1 inhibitor, PD98059 (PD98), 50 μM. PI3K inhibitor, Wortmannin, 5 nM. […] Values for antibody and inhibitor treatments were from separate experiments which included all relevant controls. […] UT denotes untreated controls. *P<0.01 (ANOVA) compared to UT; † P<0.02 (ANOVA) compared to PlGF only. ‡ P<0.001 (ANOVA) compared to PlGF only.

MDA-MB-231 [6] = assay: Matrigel cell invasion assay, MDA-MB-231; format: cell-based, human; settings: 24 h
Procedure: (§6) Cellular invasion was determined by addition of 5×10^4cells to growth factor-reduced Matrigel invasion chambers (BD Biosciences Discovery Labware, Bedford, Mass.) (Taylor et al., 2003b; Passaniti et al., 1992, Lab Invest 67, 519-528). Additives to the Matrigel® plugs were pre-incubated together in a total volume of 100 μl PBS at RT for 10 min, after which each additive was added to the Matrigel. Growth factors (2.0 or 0.2 nM), peptide (2 μg/ml), or antibody (1 μg/ml) were added to cells in low serum (0.1% fetal bovine serum [FBS]) medium. Baseline and chemoattractant-based invasion (10% FBS) were included. The number of invading cells was determined by counting the number of cells on the bottom of the invasion chamber membrane after staining at 100× magnification after 24 h (MDA-MB-231) or 48 h (MCF-7, MDA-MB-468). The results of three to five separate experiments are presented.

MCF-7 [7] = assay: Matrigel cell invasion assay, MCF-7; format: cell-based, human; settings: PlGF 0.2 nM ± peptide 2 μg/ml; 48 h
Procedure: as §6

MDA-MB-468 [8] = assay: Matrigel cell invasion assay, MDA-MB-468; format: cell-based, human; settings: PlGF 0.2 nM ± peptide 2 μg/ml; 48 h
Procedure: as §6

MDA-MB-468 [9] = assay: Wound-healing (motility) assay, MDA-MB-468; format: cell-based, human
Procedure: as §3, §4, §5

[10] = system: microvessels in PlGF-containing Matrigel plugs; assay: Matrigel basement membrane plug angiogenesis assay; format: in vivo, nude mice
Excerpt: To further investigate the effect of PlGF binding peptides on endothelial cell migration and angiogenesis, Matrigel basement membrane plugs containing PlGF, BP1, BP2, or PBS were implanted s.c. on the flanks of nude mice. The number of interior microvessels in the PBS controls was 16.2±11.4/mm^2. PlGF-only implants contained 28.9±17.2/mm^2 (1.8-fold vs. mock-treated implants), and implants with PlGF and BP1 contained only 12.3±13.0 microvessels/mm^2 (P<0.02).

MDA-MB-231 [11] = assay: Wound-healing (motility) assay, MDA-MB-231; format: cell-based, human
Procedure: as §3, §4, §5

[12] = system: MDA-MB-468 human breast cancer cells; assay: MTT tumor cell viability assay, MDA-MB-468; format: cell-based; settings: peptide 2 μM or PlGF 2 nM alone, 24 h
Procedure: as §1, with “These assays were also performed using medium with 10% FBS, with similar results.” left out

[13] = PlGF 2 nM ± test agent, relative to PlGF-only value
[14] = growth factor PlGF 2 nM ± test agent (Flt-1 2 nM, peptide 2 μM, antibody 1 μg/ml), 18-24 h

binding to PlGF (in words) (PlGF): did not bind detectably
binding to Flt-1 (in words) [3]: No measurable binding
Molecule: QEAFNRLTSRMH (listed as Homo sapiens) [BP3]
effect on PlGF mediated angiogenesis in corneal tissues [1]: inhibits
effect on viability after 48 h, peptide alone ([2]; peptide alone, 48 h, vs untreated controls): lost viability
duration of treatment after which effect on tumor growth was apparent (MDA-MB-468 xenografts): 2 weeks
tumor growth inhibition (MDA-MB-468 xenografts): 58%
effect on viability of PlGF-containing MDA-MB-231 cultures ([4]; PlGF 2 nM + peptide 1-2 μM, 1% serum): significant reduction in cell viability

binding to PlGF (in words) (PlGF): did not bind detectably
binding to Flt-1 (in words) [3]: No measurable binding
Molecule: RMPYSEHSAPLG (listed as Homo sapiens) [BP4]
effect on PlGF mediated angiogenesis in corneal tissues [1]: inhibits
effect on viability of PlGF-containing MCF-7 cultures ([2]; PlGF 2 nM + peptide 1-2 μM, 24 h, 1% serum): significant reduction in cell viability
tumor growth inhibition (MDA-MB-468 xenografts): 20%

B1: PlGF: recombinant human PlGF-2, placental growth factor (R&D Systems) (protein)
chain: T1 sequence (P49763 19-170 isoform P49763-3 limits assumed)
Relative activity (MCF-7 [5]; [13]): 100
increase in motility (MCF-7 [5]; exogenous PlGF): 1.8-2.1 fold
Migrating cells (MCF-7 [5]; [14]): 22.1 ± 13.4* cells/100× field
Average fold-change in the number of cells on the membrane compared to untreated controls (MDA-MB-231 [6]; PlGF 0.2 nM ± peptide 2 μg/ml): 4.0 ± 2.2 fold
invading cells (MDA-MB-231 [6]; PlGF 0.2 nM): 28±12 cells
invading cells (MDA-MB-231 [6]; PlGF 2.0 nM): 30±13.7 cells
increased invasion (MDA-MB-231 [6]; PlGF at both 2.0 and 0.2 nM): ~3 fold
Average fold-change in the number of cells on the membrane compared to untreated controls (MCF-7 [7]): 2.1 ± 0.7 fold
Average fold-change in the number of cells on the membrane compared to untreated controls (MDA-MB-468 [8]): 1.8 ± 0.3 fold
angiogenic response in cornea ([1]; micropellets with 100 ng PlGF): induces a strong angiogenic response
Relative activity (MDA-MB-468 [9]; [13]): 100
effect on motility (in words) (MDA-MB-468 [9]; exogenous PlGF): did not significantly affect
Migrating cells (MDA-MB-468 [9]; [14]): 14.7 ± 9.8 cells/100× field
interior microvessels ([10]; PlGF-containing implants ± BP1, s.c., PBS controls 16.2±11.4): 28.9±17.2 /mm^2
microvessels, fold vs. mock-treated implants ([10]; PlGF-only implants): 1.8 fold
Relative activity (MDA-MB-231 [11]; [13]): 100
increase in motility (MDA-MB-231 [11]; exogenous PlGF): 1.8-2.1 fold
Migrating cells (MDA-MB-231 [11]; growth factor PlGF 2 nM ± test agent (Flt-1 2 nM, peptide 2 μM, antibody 1 μg/ml, PD98059 50 μM, Wortmannin 5 nM), 18-24 h): 42.0 ± 13.3* cells/100× field
effect on cell viability / cell number, agent alone [12]: increased cell numbers
effect on cell viability / cell number, agent alone ([4]; peptide 2 μM or PlGF 2 nM alone): increased cell numbers
